Experiments:
[1] = target: GFP–STIM2K dimer (oxidized, disulphide-linked through Cys725) (human) (UniProt Q9P246); assay: pull-down; competition: GFP–STIM2K dimer bound to Ca^2+/CaM beads, eluted with 75 μM purified CaM or CaM mutant in 1 mM CaCl2; percent of bound GFP–STIM2K eluted
[2] = target: GFP–Zipper–STIM1K (GFP, tetramerization domain of the Gcn4 leucine zipper variant pLI, STIM1 K-rich domain) (yeast | human) (UniProt Q13586); assay: SEC; Superdex 200 10/300 GL in HK buffer (25 mM HEPES/KOH pH 7.5, 150 mM KCl, 1 mM DTT), 0.5 ml/min; elution compared with marker proteins
[3] = target: GFP–STIM2K dimer (oxidized, disulphide-linked through Cys725) (human) (UniProt Q9P246)
[4] = target: GFP–STIM2K dimer (oxidized, disulphide-linked through Cys725) (human) (UniProt Q9P246); remark: listed apart in the source
[5] = target: GFP–STIM2K dimer (oxidized, disulphide-linked through Cys725) (human) (UniProt Q9P246); remark: listed apart in the source

GFP–STIM2K dimer (oxidized, disulphide-linked through Cys725) (human), sequence (Q9P246 720-746): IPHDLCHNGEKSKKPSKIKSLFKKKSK

percent of GFP–STIM2K eluted from the Ca^2+/CaM beads [1] [%]	stoichiometry N [2]	reduction of binding of 2 μM GFP–STIM2K dimer to PC liposomes with 5 mol% PI(4,5)P2 after pre-incubation with 5 μM CaM in 100 μM CaCl2 (5-fold against no CaCl2, 3.8-fold against 100 μM CaCl2) [3] [%]	reduction of binding of 2 μM GFP–STIM2K dimer to PM-like liposomes with 2 mol% PI(4,5)P2 after pre-incubation with 5 μM CaM in 50, 100 or 200 μM CaCl2 (2.1-, 2.6- and 3.4-fold against CaCl2 alone) [4] [%]	reduction of binding of 2 μM GFP–STIM2K dimer to PM-like liposomes with 2 mol% PI(4,5)P2 after pre-incubation with 5 μM CaM in 100 μM CaCl2, against 100 μM CaCl2 alone [5] [%]	Substance
7					CaM1–4m (human CaM1–4 mutant, all four EF-hand domains mutated) (from UniProt P0DP23 1-149) (natural protein)
	4				GFP–Zipper–STIM1K (GFP, tetramerization domain of the Gcn4 leucine zipper variant pLI, STIM1 K-rich domain) (from UniProt Q13586-1 662-685)
45		74	71	61	His(6)-tagged human CaM (calmodulin) (from UniProt P0DP23 1-149) (natural protein)

Source: PMC3814058
